Reference: patent US20240165255A1 (FRED HUTCHINSON CANCER CENTER, published 2024)

Molecular target: folate receptor alpha (FOLR1) on MV4;11 FOLR1+ cells and on CBF/GLIS-transduced CB HSPCs (UniProt P15328 25-234, limits assumed)
Assay: cell-based or functional assay

folate receptor alpha (FOLR1) on MV4;11 FOLR1+ cells and on CBF/GLIS-transduced CB HSPCs, sequence (P15328 25-234 limits assumed): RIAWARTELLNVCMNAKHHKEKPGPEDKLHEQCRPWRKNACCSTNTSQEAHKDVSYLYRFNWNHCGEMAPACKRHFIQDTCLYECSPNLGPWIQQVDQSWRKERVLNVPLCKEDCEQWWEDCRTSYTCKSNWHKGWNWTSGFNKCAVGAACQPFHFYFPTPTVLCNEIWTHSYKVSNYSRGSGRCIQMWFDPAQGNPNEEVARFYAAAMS

B1: FOLR1-directed site-specific antibody-drug Conjugate P (IgG antibody with VH region SEQ ID NO: 362 and VL region SEQ ID NO: 367, conjugate formula P, n=4) (antibody, V domains shown)
VH: EVQLVESGGGLVQPGGSLRLSCAASGFNIRTQSIHWVRQAPGKGLEWIGDIFPIDGITDYADSVKGRFTISADTSKNTAYLQMNSLRAEDTAVYYCARGSWSWPSGMDYYLDYWGQGTLVTVSS
VL: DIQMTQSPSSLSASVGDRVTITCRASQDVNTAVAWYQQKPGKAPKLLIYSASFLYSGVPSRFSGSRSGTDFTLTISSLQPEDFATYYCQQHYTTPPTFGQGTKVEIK
modifications: para-azidomethylphenylalanine residues substituting for Y180 and F404 of each VH region (so in the source); heavy chain positions), conjugated according to conjugate formula P, n=4 (hemiasterlin drug-linker)
  in vitro cytotoxicity IC50 (printed as '1050s') against CBF/GLIS-transduced CB HPSCs (which upregulate FOLR1): 4.2 nM
  in vitro cytotoxicity IC50 (printed as '1050s') against MV4;11 AML cell line engineered to express FOLR1 (MV4;11 FOLR1+): 0.1 nM
